# From patent US20230265458A1
# Tests used:
# [1] = target: human CD19 (hCD19, hCD19 variant 2), expressed on U87MG cells from the sRRVe-F4-hCD19 vector (human) (UniProt P15391); experiment: cell-based or functional assay
# [2] = target: truncated human CD19 (hCD19t, CD19t), 323 amino acids, 233 amino acids of the cytoplasmic domain removed (human) (UniProt P15391); experiment: cell-based or functional assay
substance,measurement,setting,value
anti-CD19 CAR-T (chimeric antigen receptor against CD19 on T cells),"decrease in cell viability, WST-1 assay, E:T ratio 0.5:1, first day; U87MG cells transfected with sRRVgp-F4-DsRed/sRRVe-F4-hCD19",[1],54.9%
same,"decrease in cell viability, WST-1 assay, E:T ratio 1:1, within 1 day; U87MG cells transfected with sRRVgp-F4-DsRed/sRRVe-F4-hCD19",[1],25.8%
same,"decrease in cell viability, WST-1 assay, E:T ratio 0.5:1, first day; U87MG cells transfected with sRRVgp-F4-hCD19t/sRRVe-F4-TK",[2],54.3%
same,"decrease in cell viability, WST-1 assay, E:T ratio 0.5:1, first day; U87MG cells transfected with sRRVgp-F4-yCD/sRRVe-F4-hCD19t",[2],58.2%
same,"decrease in cell viability, WST-1 assay, E:T ratio 1:1, within 1 day; U87MG cells transfected with sRRVgp-F4-hCD19t/sRRVe-F4-TK",[2],24.8%
same,"decrease in cell viability, WST-1 assay, E:T ratio 1:1, within 1 day; U87MG cells transfected with sRRVgp-F4-yCD/sRRVe-F4-hCD19t",[2],20%
